Data: paper PMC7959576 (Proceedings of the National Academy of Sciences of the …, 2020)

B1: CHK-124 IgG (antibody, V domains shown)
VH: QLQESGGGLVQPGGSMKLSCVASGFTFSNYWMNWVRQSPEKGLEWVAQIRLKSDSYATYYADSVKGRFTVSRDDSKSNVYLQMNSLRAEDTGIYYCTDFYGFGDFFPYWGQGTLVTVSS
VL: DIVMTQSPKFMSTSIGDRVSVTCQASQNVGTNVAWYQQKPGQSPKPLIYSASYRYSGVPGRFTGSGSGTDFTLTINNVQSEDLADYFCQQYNSFPLTFGAGTKLELK
B2: CHK-263 IgG (antibody, V domains shown)
VH: VQLQQSGAELVKPGASVKISCKASGYAFSSYWMNWVKQRPGKGLEWIGQIYPGDGDTNYNGKFKGKATLTADKSSSTAYMQLSSLTSEDSAVYFCARGGLTIDYWGQGTTLTVSS
VL: DIVLTQSPATLSVTPGDSVSLSCRASQSISDNLHWYQQKSHESPGLLIKYASQSISGIPSRFSGSGSGTDFTLSINSVETEDFGMYFCQQSNSWPYTFGGGTKLEIK

Biological target: CHIKV VLPs, E1-E2 heterodimers on the particle surface (Chikungunya virus, VLP strain not …, UniProt Q5XXP3)
Test: ELISA

CHIKV VLPs, E1-E2 heterodimers on the particle surface, sequence (Q5XXP3 whole entry, looked up, one chain of several): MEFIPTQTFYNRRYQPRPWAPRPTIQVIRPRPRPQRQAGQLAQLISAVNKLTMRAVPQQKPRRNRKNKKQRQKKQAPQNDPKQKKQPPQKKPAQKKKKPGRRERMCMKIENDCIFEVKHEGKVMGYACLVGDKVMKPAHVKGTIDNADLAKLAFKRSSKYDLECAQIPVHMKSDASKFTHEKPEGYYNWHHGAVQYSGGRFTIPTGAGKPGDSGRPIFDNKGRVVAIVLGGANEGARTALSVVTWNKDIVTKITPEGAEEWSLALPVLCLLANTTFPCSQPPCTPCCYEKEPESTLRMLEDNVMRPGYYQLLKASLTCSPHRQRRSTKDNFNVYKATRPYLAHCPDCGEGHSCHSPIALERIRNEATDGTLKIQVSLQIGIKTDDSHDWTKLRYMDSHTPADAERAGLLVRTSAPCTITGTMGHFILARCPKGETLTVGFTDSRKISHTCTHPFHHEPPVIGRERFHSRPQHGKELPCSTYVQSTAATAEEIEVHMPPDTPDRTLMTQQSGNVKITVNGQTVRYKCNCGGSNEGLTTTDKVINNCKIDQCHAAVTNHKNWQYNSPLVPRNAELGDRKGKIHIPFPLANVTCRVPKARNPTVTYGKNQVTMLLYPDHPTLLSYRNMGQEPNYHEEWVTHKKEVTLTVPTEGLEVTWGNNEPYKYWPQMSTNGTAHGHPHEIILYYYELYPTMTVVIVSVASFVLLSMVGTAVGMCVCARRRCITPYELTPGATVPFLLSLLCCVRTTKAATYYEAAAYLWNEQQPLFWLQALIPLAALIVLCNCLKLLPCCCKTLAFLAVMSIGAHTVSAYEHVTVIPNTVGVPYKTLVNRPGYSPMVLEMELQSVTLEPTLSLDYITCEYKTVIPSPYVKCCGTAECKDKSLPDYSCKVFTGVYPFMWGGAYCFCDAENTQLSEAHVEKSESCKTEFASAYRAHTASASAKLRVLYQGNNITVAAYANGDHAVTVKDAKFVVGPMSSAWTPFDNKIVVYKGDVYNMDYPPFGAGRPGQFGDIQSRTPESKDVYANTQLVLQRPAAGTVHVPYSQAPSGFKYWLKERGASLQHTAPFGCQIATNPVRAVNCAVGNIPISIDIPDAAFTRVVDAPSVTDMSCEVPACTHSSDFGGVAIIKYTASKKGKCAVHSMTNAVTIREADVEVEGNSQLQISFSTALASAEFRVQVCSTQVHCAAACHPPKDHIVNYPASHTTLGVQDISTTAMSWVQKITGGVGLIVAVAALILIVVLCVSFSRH

| Binder | binding result |
| --- | --- |
| B1 | binds |
| B2 | binds |
